Data: PMC4531439, “New insights into the molecular mechanism of the Rab GTPase Sec4p activation” (BMC Structural Biology, 2015)

Biological target: the molecule itself
Experiment: cell-based or functional assay

B1: Sec2p (51–142) (domain or fragment, UniProt P17065 51-142, looked up)
chain: NYNQLKEDYNTLKRELSDRDDEVKRLREDIAKENELRTKAEEEADKLNKEVEDLTASLFDEANNMVADARKEKYAIEILNKRLTEQLREKDT
- mantGDP dissociation rate from Sec4p(19-187) stimulated by 500 nM Sec2p(51-142), compared with Sec2p(1-160): 20 fold slower than Sec2p 1-160
